{"source": "patent US9315837B2", "about": "“Desaturases of a green microalga and uses thereof” (Ben Gurion University of the Negev Research and Development …, priority 2010, dated 2016)", "molecules": {"B1": {"name": "PiDes5: P. incisa Δ5 desaturase, predicted protein of 482 amino acids, SEQ ID NO: 3 (protein, listed as Parietochloris incisa)", "chain": "MMAVTEGAGGVTAEVGLHKRSSQPRPAAPRSKLFTLDEVAKHDSPTDCWVVIRRRVYDVTAWVPQHPGGNLIFVKAGRDCTQLFDSYHPLSARAVLDKFYIGEVDVRPGDEQFLVAFEEDTEEGQFYTVLKKRVEKYFRENKLNPRATGAMYAKSLTILAGLALSFYGTFFAFSSAPASLLSAVLLGICMAEVGVSIMHDANHGAFARNTWASHALGATLDIVGASSFMWRQQHVVGHHAYTNVDGQDPDLRVKDPDVRRVTKFQPQQSYQAYQHIYLAFLYGLLAIKSVLLDDFMALSSGAIGSVKVAKLTPGEKLVFWGGKALWLGYFVLLPVVKSRHSWPLLAACWLLSEFVTGWMLAFMFQVAHVTSDVSYLEADKTGKVPRGWAAAQAATTADFAHGSWFWTQISGGLNYQVVHHLFPGICHLHYPAIAPIVLDTCKEFNVPYHVYPTFVRALAAHFKHLKDMGAPTAIPSLATVG"}, "B2": {"name": "PiDes12: P. incisa Δ12 desaturase, predicted protein of 380 amino acids, SEQ ID NO: 1 (protein, listed as Parietochloris incisa)", "chain": "MGKGGCYQAGPPSAKKWESRVPTAKPEFTIGTLRKAIPVHCFERSIPRSFAYLAADLAAIAVMYYLSTFIDHPAVPRVLAWGLLWPAYWYFQGAVATGVWVIAHECGHQAFSPYQWLNDAVGLVLHSCLLVPYYSWKHSHRRHHSNTGSTTKDEVFVPREAAMVESDFSLMQTAPARFLVIFVSLTAGWPAYLFANASGRKYGKWANHFDPYSPIFTKRERSEIVVSDVALTVVIAGLYSLGKAFGWAWLVKEYVIPYLIVNMWLVMITLLQHTHPELPHYADKEWDWLRGALATCDRSYGGMPDHLHHHIADTHVAHHLFSTMPHYHAQEATEAIKPILGKYYKQDKRNVWAALWEDFSLCRYVAPDTAGSGILWFRA"}, "B3": {"name": "PiDes6: P. incisa Δ6 desaturase, predicted protein of 481 amino acids, SEQ ID NO: 2 (protein, listed as Parietochloris incisa)", "chain": "MCQGQAVQGLRRRSSFLKLTGDAIKGAVAAISDFNKLPAATPVFARRSLSDSALQQRDGPRSKQQVTLEELAQHNTPEDCWLVIKNKVYDVSGWGPQHPGGHVIYTYAGKDATDVFACFHAQTTWSQLRPFCIGDIVEEEPMPALLKDFRELRTRLQQQGLFRSNKLYYLYKVASTLSLLAAALAVLITQRDSWLGLVGGAFLLGLFWQQSGWLAHDFLHHQVFTDRQWNNVMGYFLGNVCQGFSTDWWKSKHNVHHAVPNELDSDSKAARDPDIDTLPLLAWSSEMLDSMSNSGARLFVRMQHYFFFPILLFARMSWCQQSVAHASDLSRTSKAGVYELAYLALHYAWFLGAAFSVLPPLKAVVFALLSQMFSGFLLSIVFVQSHNGMEVYSDTKDFVTAQIVSTRDILSNVWNDWFTGGLNYQIEHHLFPTLPRHNLGKVQKSIMELCHKHGLVYENCGMATGTYRVLQRLANVAAEA"}}, "key": {"[1]": {"system": "supplied fatty acids in S. cerevisiae strain W303", "test": "Functional expression of PiDes12, PiDes6 and PiDes5 in S. cerevisiae fed with fatty acid substrates, GC of FAMEs", "format": "cell-based, Saccharomyces cerevisiae", "conditions": "for substrate conversion (ARA emergence after addition of DGLA): PiDes5 transformant, total fatty acids", "text": "(§1) The open reading frames (ORFs) encoding for the […], Δ6, and Δ5 desaturases were amplified using PfuUltra II fusion HS DNA polymerase (Stratagene, La Jolla, Calif., USA) with the respective primer pairs (Table 1). The forward primers contained a restriction site (underlined) and a yeast translation consensus (double underlined) followed by ATG. The reverse primers contained a restriction site (underlined) and a stop codon (double underlined). Following restriction and ligation to the pYES2 vector (Invitrogen, Carlsbad, Calif., USA), the constructs were used to transform S. cerevisiae strain W303 by the PEG/lithium acetate method [R. D. Gietz, R. A. Woods, Yeast Transformation by the LiAc/SS Carrier DNA/PEG Method, in: W. Xiao (Ed.), Yeast Protocols, Second Edition, vol. 313, Methods in Molecular Biology, Humana Press Inc, Totowa, N. J., 2006, pp. 107-120]. The yeast cells harboring the empty pYES2 vector were used as control. Transformants were selected by uracil prototrophy on yeast synthetic medium (YSM) lacking uracil (Invitrogen, Carlsbad, Calif., USA). For functional expression, a minimal selection medium containing 2% (w/v) raffinose was inoculated with the pYPiDesΔ12, pYPiDesΔ6 or pYPiDesΔ5 transformants and grown at 27° C. for 24 h in a water bath shaker. Five ml of sterile YSM, containing 1% (w/v) Tergitol-40 and 250 µM of the appropriate fatty acid substrate was inoculated with raffinose-grown cultures to obtain an OD of 0.2 at 600 nm. Expression was induced by adding galactose to a final concentration of 2% (w/v) and cultures were further grown at 27° C. for 48 h. Cells were harvested by centrifugation, washed twice with 0.1% NaHCO^3, freeze-dried and used for fatty acid analysis.\n(§2) Fatty acid methyl esters (FAMES) were obtained by transmethylation of the freeze-dried P. incisa or yeast biomass, with dry methanol containing 2% H2SO4 (v/v) and heating at 80° C. for 1.5 h while stirring under an argon atmosphere. Gas chromatographic analysis of FAMES was performed on a Thermo Ultra Gas chromatograph (Thermo Scientific, Italy) equipped with PTV injector, FID detector and a fused silica capillary column (30 m×0.32 mm; ZB WAXplus, Phenomenex). FAMES were identified by co-chromatography with authentic standards (Sigma Chemical Co., St. Louis, Mo.; Larodan Fine Chemicals, Malmo, Sweden) and FAME of fish oil (Larodan Fine Chemicals). Each sample was analyzed in duplicates of three independent experiments. The structures of fatty acids were confirmed by GC-MS of their pyrrolidine derivatives [W. W. Christie, The analysis of fatty acids in: W. W. Christie (Ed.), Lipid analysis Isolation, separation, identification and structural analysis of lipids, vol. 15, Third edition, The Oily Press, Bridgewater, England, 2003, pp. 205-225] on HP 5890 equipped with a mass selective detector (HP 5971A) utilizing a HP-5 capillary column and a linear temperature gradient from 120 to 300° C.\nThe functional activities of the proteins encoded by PiDes12, PiDes6 and PiDes5 were examined by heterologous expression in S. cerevisiae. To this aim, the pYES2 constructs pYPiDes12, pYPiDes6 and pYPiDes5 containing the ORFs for PiDes12, PiDes6, and PiDes5, respectively, were transformed into S. cerevisiae. […] An attempt to improve the expression of the recombinant protein and to increase the activity by the modification of yeast translation consensus was not successful.\nPiDes6 and PiDes5 expressions were induced in the presence of the main ω6 substrates for Δ6 or Δ5 fatty acid desaturases, 18:2ω6 and 20:3ω6, respectively. New peaks corresponding to 18:3ω6 and 20:4ω6, respectively, were detected, confirming the predicted function of PiDes6 and PiDes5. […] PiDes6 was not active on […] either, whereas PiDes5 desaturated it to the non-methylene-interrupted 20:4^Δ5,11,14,17. PiDes5 converted 20:4ω3 into the respective Δ5 product, 20:5ω3 (EPA) as well as the added 18:1 into the non-methylene-interrupted 18:2^Δ5,9 (FIG. 3). […]"}, "[2]": {"system": "20:3ω6 in lipid classes of S. cerevisiae", "test": "Fatty acid analysis of individual lipid classes of S. cerevisiae expressing the PiDes5 ORF, fed with 20:3ω6", "format": "cell-based, Saccharomyces cerevisiae", "conditions": "for % conversion: 24 h after feeding 20:3ω6", "text": "as §1, §2\nThe biomass of S. cerevisiae was heated with isopropanol at 80° C. for 10 min and lipids were extracted by the method of Bligh-Dyer (1959) [E. G. Bligh, W. J. Dyer, A rapid method of total lipid extraction and purification, Can. J. Biochem. Physiol. 37 (1959) 911-917]. Total lipid extract was separated into neutral and polar lipids by silica Bond-Elute cartridges (Varian, Calif.) using 1% of ethanol in chloroform (v/v) and methanol to elute neutral and polar lipids, respectively [Z. Cohen, S. Didi, Y. M. Heimer, Overproduction of γ-linolenic and eicosapentaenoic acids by algae, Plant Physiol. 98 (1992) 569-572]. […]"}, "[3]": {"conditions": "substrate 18:1^Δ9, PiDesΔ5 product 18:2^Δ5,9, product/(substrate + product)"}, "[4]": {"conditions": "substrate 18:3^Δ9,12,15, PiDesΔ6 product 18:4^Δ6,9,12,15, PiDesΔ5 product 18:4^Δ5,9,12,15 (tentative identification)"}, "[5]": {"conditions": "substrate 20:3^Δ11,14,17, PiDesΔ5 product 20:4^Δ5,11,14,17"}}, "note": "Values joined by “and” are separate entries in the source; they are usually repeats but may differ in a detail not shown here. Equal entries are not always repeated. Marks after values point to notes of the source that are not given here.", "data": [{"molecule": "B1", "values": [{"measurement": "substrate conversion (ARA emergence after addition of DGLA)", "setting": "[1]; after 3 h", "result": "10.9% and 10.6%"}, {"measurement": "substrate conversion (ARA emergence after addition of DGLA)", "setting": "[1]; after 24 h", "result": 15.1, "unit": "%"}, {"measurement": "Desaturase product and conversion (%) of supplied fatty acid", "setting": "[1]; [3]", "result": "18:2^Δ5,9 (4.2) %"}, {"measurement": "Desaturase product and conversion (%) of supplied fatty acid", "setting": "[1]; [4]", "result": "18:4^Δ5,9,12,15** (1.4) %"}, {"measurement": "Desaturase product and conversion (%) of supplied fatty acid", "setting": "[1]; substrate 20:3^Δ8,11,14, PiDesΔ5 product 20:4^Δ5,8,11,14", "result": "20:4^Δ5,8,11,14 (16.4) %"}, {"measurement": "Desaturase product and conversion (%) of supplied fatty acid", "setting": "[1]; [5]", "result": "20:4^Δ5,11,14,17 (10.0) %"}, {"measurement": "Desaturase product and conversion (%) of supplied fatty acid", "setting": "[1]; substrate 20:4^Δ8,11,14,17, PiDesΔ5 product 20:5^Δ5,8,11,14,17", "result": "20:5^Δ5,8,11,14,17 (17.1) %"}, {"measurement": "20:4ω6, fatty acid composition", "setting": "[2]; lipid class DAG", "result": "2.0 % of total fatty acids"}, {"measurement": "% conversion", "setting": "[2]; lipid class DAG", "result": 24.0, "unit": "%"}, {"measurement": "20:4ω6, fatty acid composition", "setting": "[2]; lipid class FFA", "result": "3.6 % of total fatty acids"}, {"measurement": "% conversion", "setting": "[2]; lipid class FFA", "result": 17.2, "unit": "%"}, {"measurement": "20:4ω6, fatty acid composition", "setting": "[2]; lipid class PC", "result": "3.6 % of total fatty acids"}, {"measurement": "% conversion", "setting": "[2]; lipid class PC", "result": 24.2, "unit": "%"}, {"measurement": "20:4ω6, fatty acid composition", "setting": "[2]; lipid class PE", "result": "1.6 % of total fatty acids"}, {"measurement": "% conversion", "setting": "[2]; lipid class PE", "result": 24.6, "unit": "%"}, {"measurement": "20:4ω6, fatty acid composition", "setting": "[2]; lipid class PI + PS", "result": "1.1 % of total fatty acids"}, {"measurement": "% conversion", "setting": "[2]; lipid class PI + PS", "result": 18.1, "unit": "%"}, {"measurement": "20:4ω6, fatty acid composition", "setting": "[2]; lipid class SE", "result": "1.1 % of total fatty acids"}, {"measurement": "% conversion", "setting": "[2]; lipid class SE", "result": 8.4, "unit": "%"}, {"measurement": "20:4ω6, fatty acid composition", "setting": "[2]; lipid class TAG", "result": "2.0 % of total fatty acids"}, {"measurement": "% conversion", "setting": "[2]; lipid class TAG", "result": 9.3, "unit": "%"}, {"measurement": "20:4ω6 share by lipid class (% of total lipid)", "setting": "[2]; share found in lipid class DAG", "result": 1.4, "unit": "% TL"}, {"measurement": "20:4ω6 share by lipid class (% of total lipid)", "setting": "[2]; share found in lipid class FFA", "result": 9.1, "unit": "% TL"}, {"measurement": "20:4ω6 share by lipid class (% of total lipid)", "setting": "[2]; share found in lipid class PC", "result": 25.7, "unit": "% TL"}, {"measurement": "20:4ω6 share by lipid class (% of total lipid)", "setting": "[2]; share found in lipid class PE", "result": 2.3, "unit": "% TL"}, {"measurement": "20:4ω6 share by lipid class (% of total lipid)", "setting": "[2]; share found in lipid class PI + PS", "result": 4.4, "unit": "% TL"}, {"measurement": "20:4ω6 share by lipid class (% of total lipid)", "setting": "[2]; share found in lipid class SE", "result": 1.8, "unit": "% TL"}, {"measurement": "20:4ω6 share by lipid class (% of total lipid)", "setting": "[2]; share found in lipid class TAG", "result": 55.2, "unit": "% TL"}]}, {"molecule": "B2", "values": [{"measurement": "desaturation activity", "setting": "[1]; heterologous expression in yeast", "result": "very low desaturation activity"}, {"measurement": "peak corresponding to 18:2", "setting": "[1]; yeast transformed with pYPiDes12", "result": "0.3 % of TFA"}]}, {"molecule": "B3", "values": [{"measurement": "Desaturase product and conversion (%) of supplied fatty acid", "setting": "[1]; [3]", "result": "neither active"}, {"measurement": "Desaturase product and conversion (%) of supplied fatty acid", "setting": "[1]; substrate 18:2^Δ9,12, PiDesΔ6 product printed 18:2^Δ6,9,12, product/(substrate + product)", "result": "18:2^Δ6,9,12 (5.1) %"}, {"measurement": "Desaturase product and conversion (%) of supplied fatty acid", "setting": "[1]; [4]", "result": "18:4^Δ6,9,12,15 (4.5) %"}, {"measurement": "Desaturase product and conversion (%) of supplied fatty acid", "setting": "[1]; [5]", "result": "not active"}]}]}
